Molecular target: SsaL-3Flag (Salmonella enterica serovar Typhimurium (strain 12023))
Test: co-IP; Bacteria grown 6 h in MgM-MES at pH 5.0; lysate in PBS, 1 mM PMSF, 0.5% Triton X-100; SsaL-3Flag precipitated with anti-Flag M2 affinity agarose for 3 h at 4°C and eluted with 3Flag peptide; SsaV detected with anti-His antibody. Strains: wt background, ssaV^V632D, ΔssaP (with or without pssaP), and ΔssaU expressing SsaU^N262A

Chain of SsaV-6×His (P74856 whole entry): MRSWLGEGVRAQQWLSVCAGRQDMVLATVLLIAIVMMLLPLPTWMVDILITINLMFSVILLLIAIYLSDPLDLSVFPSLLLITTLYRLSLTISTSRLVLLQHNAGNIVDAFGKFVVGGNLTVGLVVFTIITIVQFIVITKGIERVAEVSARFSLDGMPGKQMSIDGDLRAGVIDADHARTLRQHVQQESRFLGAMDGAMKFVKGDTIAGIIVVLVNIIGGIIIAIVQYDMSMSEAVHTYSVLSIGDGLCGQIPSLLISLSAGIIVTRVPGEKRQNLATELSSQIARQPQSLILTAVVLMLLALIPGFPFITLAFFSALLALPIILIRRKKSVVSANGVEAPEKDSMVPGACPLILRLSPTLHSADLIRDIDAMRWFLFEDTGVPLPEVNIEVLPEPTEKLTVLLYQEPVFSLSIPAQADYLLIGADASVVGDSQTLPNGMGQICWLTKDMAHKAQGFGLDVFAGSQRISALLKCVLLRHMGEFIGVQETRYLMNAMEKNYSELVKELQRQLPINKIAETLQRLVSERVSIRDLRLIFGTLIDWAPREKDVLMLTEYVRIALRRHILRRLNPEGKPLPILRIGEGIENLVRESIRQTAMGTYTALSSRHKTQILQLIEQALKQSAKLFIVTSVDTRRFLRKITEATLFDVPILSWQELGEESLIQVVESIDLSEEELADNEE

SsaV-6×His (from UniProt P74856 1-681) (natural protein)
percent decrease of SsaV-6×His co-immunoprecipitated with SsaL-3Flag in the absence of SsaP (ΔssaP): 43.6% | percent decrease of SsaV-6×His co-immunoprecipitated with SsaL-3Flag in the absence of normally cleaved SsaU (ΔssaU expressing SsaU^N262A): 46.2%

Reference: article PMC6168863
